# Assays:
# [1] = system: atherosclerotic plaque tissue; experiment: Immunohistological analysis of thrombus endarterectomy preparations of the Arteria carotis; type: binding; conditions: human thrombus endarterectomy preparations of Arteria carotis (FIG. 5B)
# Description: (§1) Atherosclerotic plaques from the carotid of patients, removed within the context of a surgery, were disintegrated, suspended, transferred to culture plates and surface-dried. Then a specific ELISA against the Fc portion of the CD68 or GPVI or pure Fc, respectively, was performed. In a parallel immunohistological analysis of human tissue from thrombus endarterectomy preparations of the Arteria carotis were performed.
# [2] = system: MMP-9; experiment: MMP-9 expression in the supernatant of foam cells; type: cell-based, human
# Description: Moreover the method of ROS (“Reactive Oxygen Species”) measurement was used. Typically in the course of an inflammation process monocytes infiltrate the vascular wall, there differentiate into macrophages and produce cytokines, proteases such as the matrix metalloproteinase (MMP) and complement factors, but also free oxidized radicals, i.e. ROS. For the foam cells resulting from the co-incubation of CD34^+ stem cells with thrombocytes in vitro it was detected that they release ROS and also produce matrix metalloproteinase 9 (MMP-9).
# The bands correspond to the expression level of MMP-9. In the corresponding lanes the following samples were loaded: 1. control CD34, 2. control CD34, 3. control protein 100 µg/ml, 4. control protein 400 μg/ml, 5. CD68-Fc homodimer 100 µg/ml, 6. CD68-Fc homodimer 200 µg/ml, 7. CD68-Fc homodimer 400 µg/ml, 8. Fluvastatin 1 μM.
# [3] = system: atherosclerotic plaque tissue from the carotid of patients; experiment: Specific Fc-ELISA on atherosclerotic plaques in vitro; type: binding; conditions: disintegrated, surface-dried human carotid plaques (FIG. 5A)
# Description: as §1
# [4] = system: atherosclerotic vessels of Apo E mice; experiment: In vivo application of J124-labeled CD68-Fc, ex vivo autoradiography of vessels; conditions: A. carotis; Apo E mice in relation to wild type (FIG. 6)
# Description: Furthermore an in vivo application of J124-labeled CD68-Fc in atherosclerotic Apo E mice and in wild type mice was performed. J124-labeled CD68-Fc was administered into 24 weeks old atherosclerotic mice or in control wild type mice without any significant atherosclerosis. The organs were then removed and the A. carotis on both sides and the aortic arch were analyzed by autoradiography ex vivo.
# A staining with oil-red and a corresponding autoradiography is shown in partial figure (B).
# [5] = system: foam cell formation from CD34+ stem cells co-cultivated with thrombocytes; experiment: Foam cell formation by co-cultivation of CD34+ stem cells with thrombocytes, counted by phase contrast microscopy; type: cell-based, human
# Description: To isolate human thrombocytes venous blood was withdrawn from healthy test persons and collected into acidic citrate dextrose (ACD) buffer. After the centrifugation at 430 g for 20 minutes the platelet-rich plasma (PRP) was removed, added to Tyrodes HEPES buffer (2.5 mM HEPES, 150 mM NaCl, 1 mM […], 2.5 mM NaHCO3, 0.36 mM NaH2PO4, 5.5 mM glucose, 1 mg/ml BSA, pH 6.5) and centrifuged at 900 g for 10 minutes. After the removal of the supernatant the thrombocyte containing pellet was suspended in Tyrodes HEPES buffer (pH 7.4).
# Human CD34^+ cells were isolated from human cord blood. This was obtained after the approval of the local ethics committee from healthy women immediately after the birth of a child. At least 95% of the isolated cells were positive for CD34^+ which was confirmed by means of flow cytometry analysis after each isolation. Human mononuclear cells were also obtained from cord blood by density gradient centrifugation on the Biocoll separation solution (BIOCROM Berlin, Germany) at 600 g for 15 minutes. CD34^+ cells were enriched by immunoaffinity selection (CD34 progenitor cell isolation kit; Milteenyi Biotec, Bergisch Gladbach, Germany) according to the manual of the producer. In the following the cells were incubated on 96 well plates which were covered with 0.2% gelatine. For the cultivation of the cells IMDM with glutamax, supplemented with 5% heat-inactivated fetal calf serum, […] penicillin-streptomycin, 1% MEM vitamins and 1% non-essential amino acids were used, all purchased from Gibco (Invitrogen, Karlsruhe, Germany). CD34^+ progenitor cells (50000 cells) were co-cultivated at 37° C. and 5% CO2 with thrombocytes (2×10^8-ml) in 96 well plates which were pre-covered with 0.2% gelatine. The formation of foam cells was counted in six windows by means of phase contrast microscopy.
# Foam cells were produced by co-incubation of CD34^+ stem cells with thrombocytes for 10 days in vitro. […] In the following it was microscopically analyzed whether the foam cell formation was inhibited by the incubation with the CD68-Fc homodimers. […]
# [6] = increasing concentrations (summary statement)
molecule,measurement,setting,value
"CD68-Fc homodimer: Fusion of extracellular domain of human CD68 with mutated human IgG1 Fc via three amino acid connecting element (SEQ ID No. 6), secreted as disulfide-linked homodimer (protein, homodimer; Recombinant CD68-Fc fusion protein) NDCPHKKSATLLPSFTVTPTVTESTGTTSHRTTKSHKTTTHRTTTTGTTSHGPTTATHNPTTTSHGNVTVHPTSNSTATSQGPSTATHSPATTSHGNATVHPTSNSTATSPGFTSSAHPEPPPPSPSPSPTSKETIGDYTWTNGSQPCVHLQAQIQIRVMYTTQGGGEAWGISVLNPNKTKVQGSCEGAHPHLLLSFPYGHLSFGFMQDLQQKVVYLSYMAVEYNVSFPHAAQWTFSAQNASLRDLQAPLGQSFSCSNSSIILSPAVHLDLLSLRLQAAQLPHTGVFGQSFSCPSDRSGGRESKSCDKTHTCPPCPAPEAAAAPSVFLFPPKPKDTLMISRTPEVTCVVVDVSHEDPEVKFNWYVDGVEVHNAKTKPREEQYNSTYRVVSVLTVLHQDWLNGKEYKCKVSNKALPASIEKTISKAKGQPREPQVYTLPPSRDELTKNQVSLTCLVKGFYPSDIAVEWESNGQPENNYKTTPPVLDSDGSFFLYSKLTVDKSRWQQGNVFSCSVMHEALHNHYTQKSLSLSPGK",binding to atherosclerotic plaque tissue (immunohistology),[1],significant binding
same,expression of MMP-9 in the supernatant of foam cells,"[2]; 100, 200 and 400 μg/ml (lanes 5, 6, 7), in relation with control protein (FIG. 4)",clear inhibition of the formation of MMP-9
same,secretion of MMP-9 by foam cells,[2]; [6],can be inhibited
same,binding to atherosclerotic plaque tissue (Fc-ELISA),[3],significant binding
same,accumulation in vessels (autoradiography ex vivo),[4],No significantly increased accumulation
same,foam cell formation,"[5]; co-incubation of CD34+ stem cells with thrombocytes for 10 days in vitro, microscopic analysis (FIG. 3B)",inhibited the formation of the foam cells
same,"foam cell formation, dependence on dosage","[5]; concentration of 400 μg/ml, pure Fc as control (FIG. 3C)",virtually completely inhibited
same,formation of foam cells in co-cultivation assays in vitro,[5]; [6],significant inhibition of the formation of foam cells

# Reference: patent US8168160B2, “Anti-inflammatory fusion protein” (Eberhard-Karls-Universität Tübingen, priority 2006, dated 2012)
